Consider four molecules from US20030148377A1, “Binding compounds and methods for identifying binding compounds” (priority 2000, published 2003).

The target in series [1] is T1, ZAP-70 (Homo sapiens, UniProt P43403).
T1 construct: made in house; host or cells: Sf9 cells (baculovirus)
T1 sequence (P43403 1-619): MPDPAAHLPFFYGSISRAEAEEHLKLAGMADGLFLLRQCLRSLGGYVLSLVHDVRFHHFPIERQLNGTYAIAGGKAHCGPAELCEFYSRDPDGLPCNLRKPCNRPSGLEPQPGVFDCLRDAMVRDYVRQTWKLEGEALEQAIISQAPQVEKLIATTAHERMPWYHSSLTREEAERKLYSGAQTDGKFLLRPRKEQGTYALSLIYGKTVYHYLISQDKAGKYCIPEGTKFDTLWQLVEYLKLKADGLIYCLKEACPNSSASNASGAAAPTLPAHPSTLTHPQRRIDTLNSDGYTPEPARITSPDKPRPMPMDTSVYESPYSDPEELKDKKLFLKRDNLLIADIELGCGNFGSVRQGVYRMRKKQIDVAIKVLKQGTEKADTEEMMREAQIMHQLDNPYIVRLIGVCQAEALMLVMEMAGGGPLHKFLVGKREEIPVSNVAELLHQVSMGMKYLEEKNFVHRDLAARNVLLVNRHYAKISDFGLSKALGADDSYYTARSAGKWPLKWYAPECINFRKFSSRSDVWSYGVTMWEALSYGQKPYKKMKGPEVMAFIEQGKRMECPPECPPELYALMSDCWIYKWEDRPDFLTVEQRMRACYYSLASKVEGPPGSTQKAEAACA
Description: Inhibition of tubulin phosphorylation by ZAP-70. Type of series: biochemical. As to conditions: tubulin (5 μM) as substrate; FIG. 1D; compared to peptide 4. The procedure:
FIG. 1A: A glutathione-S-transferase chimera of ZAP-70 was purified from Sf9 cells and assayed for its ability to phosphorylate tubulin in the presence of 0, 50, or 100 μM of peptide 1 (SEQ ID NO: 5) or peptide 2 (SEQ ID NO: 6). The assay was carried out in kinase buffer (5 mM MnCl2, 5 mM MgCl2, 25 mM Tris [pH 7.4]), 50 μM ATP, and […] [γ-^32P]ATP for 5 min at 30° C. ^32P-phosphorylated tubulin was separated on SDS-PAGE, visualized by autoradiography (inset), and quantitated using a molecular imager (Bio-Rad).
FIG. 1D: The ZAP-70 Tyr-kinase assay was as described above, using tubulin (5 μM) as substrate. […]
(§1) Synthetic peptides, tubulin, or GST-band III (construct kindly provided by A. Weiss, University of California, San Francisco) (Zhao and Weiss, 1996) were phosphorylated by ZAP-70-GST-fused protein in the presence or absence of the indicated amount of inhibitory peptides in the kinase buffer (10 mM MnCl2, 50 mM Tris [pH 7.4], 1 mM DTT), 100 μM ATP, and 5 μCi [γ-^32P]ATP for 5 min (or 10 min for GST-band-III) at 30° C. The amount of radioactivity incorporated into substrate peptide was determined using the phosphocellulose assay. […] Phosphorylated tubulin, GST-band III, and myelin basic protein were separated on SDS-PAGE, visualized by autoradiography, and quantitated using a molecular imager (Bio-Rad, Hercules, Calif.).

The target of series [2] is T1, ZAP-70. Nature of the series: Inhibition of ZAP-70 phosphorylation of peptide 1 (phosphocellulose assay, Lineweaver-Burke plot). The class given is biochemical. As to conditions: peptide 1 as substrate; FIG. 1B; compared to peptide 4. The procedure:
FIG. 1B: ZAP-70 was also assayed for its ability to phosphorylate peptide 1 (10 μM) in the presence of 0, 10, or 50 μM of peptide 4 (SEQ ID NO: 9) or peptide 5 (SEQ ID NO: 10). Peptide phosphorylation was determined by spotting the reaction mixture on phosphocellulose and washing away the ^32P-ATP with a phosphate buffer. The polylysine tail of peptide 1 facilitates retention on the phosphocellulose (Songyang et al., 1996). The data are presented as the percentage of the activity present in the absence of inhibitory peptides. […]
as §1

Another series addresses T2, Lck-GST-fused protein (Homo sapiens, UniProt P06239).
T2 construct: made in house; host or cells: Sf9 cells
Description: Inhibition of myelin basic protein phosphorylation by Lck. The class given is biochemical. As to conditions: myelin basic protein (5 μM) as substrate; FIG. 1E; compared to peptide 4. The protocol: FIG. 1E: A glutathione-S-transferase chimera of Lck was purified from Sf9 cells and assayed for the ability to phosphorylate myelin basic protein (5 μM) in the presence or absence of the same three peptides as used in FIG. 1D. The assay was carried out for 5 min at 30° C.
as §1, with “assay. Lck-GST-fused protein was purified from Sf9 cells. Myelin basic protein was phosphorylated by Lck-GST-fused protein in the presence or absence of inhibitory peptides in the kinase buffer (5 mM MnCl2, 5 mM MgCl2, 25 mM Tris [pH 7.4]), 50 μM ATP, and 5 μCi [γ-^32P]ATP for 5 min at 30° C.” for “assay.”

Series [3] deals with T3, peptide 1 (optimal ZAP-70 substrate, EEEEYFFII AKKK).
T3 chain: EEEEYFFIIAKKK

For series [4], the target named is T4, peptide 2 (predicted optimal ZAP-70 binding peptide, KLILYLLLL AKKK).
T4 chain: KLILYLLLLAKKK

Series [5] addresses T5, peptide 3 (ELILYLLLL AKKK).
T5 chain: ELILYLLLLAKKK

Substrate in series [6]: CC[C@H](C)[C@H](NC(=O)[C@H](CC(C)C)NC(=O)[C@@H](N)CCC(=O)O)C(=O)N[C@@H](CC(C)C)C(=O)N[C@@H](Cc1ccc(O)cc1)C(=O)N[C@@H](CC(C)C)C(=O)N[C@@H](CC(C)C)C(=O)N[C@@H](CC(C)C)C(=O)N[C@@H](CC(C)C)C(=O)N[C@@H](C)C(=O)N[C@@H](CCCCN)C(=O)N[C@@H](CCCCN)C(=O)N[C@@H](CCCCN)C(=O)O
Nature of the series: Kinetic parameters for the phosphorylation of synthetic peptides by ZAP-70 (phosphocellulose assay). The class given is biochemical, Human. As to conditions: other: peptide as substrate, 100 μM ATP, 5 min at 30° C., average of three independent experiments. The procedure: (§2) Human ZAP-70-glutathione S-transferase (GST)-fused protein was expressed in Sf9 cells using baculovirus. In this study, we used GST-ZAP-70 expressed in Sf9 cells without coexpression of Lck for library screening and kinase assays because the substrate selectivity of partially activated ZAP-70 is higher than that of fully activated ZAP-70 in peptide library screening for their specific substrate motifs (unpublished results). ZAP-70-GST fused protein (600 μg) was purified by using glutathione-agarose beads. […]
as §1, with “Calif.). […]” for “Calif.).”

Substrate in series [7]: CC[C@H](C)[C@H](NC(=O)[C@H](CC(C)C)NC(=O)[C@@H](N)CCCCN)C(=O)N[C@@H](CC(C)C)C(=O)N[C@@H](Cc1ccc(O)cc1)C(=O)N[C@@H](CC(C)C)C(=O)N[C@@H](CC(C)C)C(=O)N[C@@H](CC(C)C)C(=O)N[C@@H](CC(C)C)C(=O)N[C@@H](C)C(=O)N[C@@H](CCCCN)C(=O)N[C@@H](CCCCN)C(=O)N[C@@H](CCCCN)C(=O)O
The description is as above. The class given is biochemical, Human. As to conditions: other: peptide as substrate, 100 μM ATP, 5 min at 30° C., average of three independent experiments. The procedure:
as §2
as §1, with “Calif.). […]” for “Calif.).”

In series [8] the target is T6, Human ZAP-70-glutathione S-transferase (GST)-fused protein (human, UniProt P43403 1-619).
T6 construct: the SH2 domains are spoken of as present; also called ZAP-70-GST fused protein; GST-ZAP-70; not shown: glutathione S-transferase (GST) fusion partner
T6 sequence (looked up): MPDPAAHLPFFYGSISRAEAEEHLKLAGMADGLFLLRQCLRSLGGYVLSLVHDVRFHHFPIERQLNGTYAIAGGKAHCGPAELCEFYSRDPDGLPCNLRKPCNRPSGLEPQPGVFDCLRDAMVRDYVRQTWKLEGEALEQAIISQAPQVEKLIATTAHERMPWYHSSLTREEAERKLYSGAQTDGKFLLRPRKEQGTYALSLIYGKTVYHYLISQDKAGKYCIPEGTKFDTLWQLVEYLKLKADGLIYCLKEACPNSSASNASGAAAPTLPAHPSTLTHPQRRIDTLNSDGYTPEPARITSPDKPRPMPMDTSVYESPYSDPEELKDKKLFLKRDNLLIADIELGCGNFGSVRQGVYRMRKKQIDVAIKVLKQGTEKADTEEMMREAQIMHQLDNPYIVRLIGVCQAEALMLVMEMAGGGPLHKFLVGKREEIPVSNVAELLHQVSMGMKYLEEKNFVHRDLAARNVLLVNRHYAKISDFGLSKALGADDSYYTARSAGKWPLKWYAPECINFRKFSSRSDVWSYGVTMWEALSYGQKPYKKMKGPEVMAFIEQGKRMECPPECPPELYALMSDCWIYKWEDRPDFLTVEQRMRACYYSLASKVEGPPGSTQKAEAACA
Nature of the series: comparison of ZAP-70 inhibition by peptide 4 and peptide 6, tubulin as substrate.

T2 sequence (P06239 whole entry, the tested form may be a part): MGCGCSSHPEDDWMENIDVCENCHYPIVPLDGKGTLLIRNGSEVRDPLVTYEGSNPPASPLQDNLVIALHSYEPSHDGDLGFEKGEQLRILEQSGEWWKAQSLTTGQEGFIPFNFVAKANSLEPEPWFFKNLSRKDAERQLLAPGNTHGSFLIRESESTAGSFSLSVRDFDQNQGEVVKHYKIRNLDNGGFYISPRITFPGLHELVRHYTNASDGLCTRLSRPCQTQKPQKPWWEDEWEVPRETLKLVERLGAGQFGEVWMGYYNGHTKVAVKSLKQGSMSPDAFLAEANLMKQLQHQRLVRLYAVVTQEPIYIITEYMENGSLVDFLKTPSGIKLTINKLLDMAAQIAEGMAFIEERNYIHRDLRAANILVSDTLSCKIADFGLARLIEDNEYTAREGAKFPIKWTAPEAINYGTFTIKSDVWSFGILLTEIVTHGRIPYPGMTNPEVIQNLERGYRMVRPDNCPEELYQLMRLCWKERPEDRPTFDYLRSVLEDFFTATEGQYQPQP

With “KLILYLLLL [peptide 6, identical to peptide 4 except for Tyr replacing the Phe]”, the “ZAP-70 inhibitory effect (in words)” value in the series with ZAP-70 [1] is listed as “little effect on peptide binding to ZAP-70”.

“peptide 5: peptide 4 with deletion of the Lys at position −4 (LILYLLLL)”: the “ZAP-70 inhibitory effect (in words)” value with ZAP-70 [1] was “less effective as an inhibitor of both kinases”. Also, the “inhibitory ability on ZAP-70 (in words)” value with ZAP-70 [2] is “dramatically reduced the inhibitory ability”. The “Lck inhibitory effect (in words)” value with Lck-GST-fused protein is on record as “less effective as an inhibitor of both kinases”.

B1: ZAP-70-GST-fused protein (Homo sapiens) (protein)
chain: MPDPAAHLPFFYGSISRAEAEEHLKLAGMADGLFLLRQCLRSLGGYVLSLVHDVRFHHFPIERQLNGTYAIAGGKAHCGPAELCEFYSRDPDGLPCNLRKPCNRPSGLEPQPGVFDCLRDAMVRDYVRQTWKLEGEALEQAIISQAPQVEKLIATTAHERMPWYHSSLTREEAERKLYSGAQTDGKFLLRPRKEQGTYALSLIYGKTVYHYLISQDKAGKYCIPEGTKFDTLWQLVEYLKLKADGLIYCLKEACPNSSASNASGAAAPTLPAHPSTLTHPQRRIDTLNSDGYTPEPARITSPDKPRPMPMDTSVYESPYSDPEELKDKKLFLKRDNLLIADIELGCGNFGSVRQGVYRMRKKQIDVAIKVLKQGTEKADTEEMMREAQIMHQLDNPYIVRLIGVCQAEALMLVMEMAGGGPLHKFLVGKREEIPVSNVAELLHQVSMGMKYLEEKNFVHRDLAARNVLLVNRHYAKISDFGLSKALGADDSYYTARSAGKWPLKWYAPECINFRKFSSRSDVWSYGVTMWEALSYGQKPYKKMKGPEVMAFIEQGKRMECPPECPPELYALMSDCWIYKWEDRPDFLTVEQRMRACYYSLASKVEGPPGSTQKAEAACA
notes: made in house; host or cells: Sf9 cells (baculovirus)
Turning to B1, the Km (µM) for phosphorylation of the synthetic peptide by ZAP-70 was 40 µM in series [3], 26 µM in [4] and 188 µM in [5]. For the same molecule, the “Km relative to peptide 2” value in series [5] is 7-fold higher Km than peptide 2. The figures for the Michaelis constant (Km) in series [6] and in [7] were 188 µM and 26 µM, respectively.

B2: peptide 6 (KLILYLLLL) (peptide)
peptide: KLILYLLLL
notes: Identical to peptide 4 except for Tyr replacing the Phe
Consider B2, for which the binding result in series [8] is listed as “binds”.
